One block for each binder: values may come before it.
Experiments:
Experiment in all cases: cell-based or functional assay
Human CXCR2 [1] = biological target: T1, Human CXCR2 (human, UniProt P25025 1-360)
T1 sequence: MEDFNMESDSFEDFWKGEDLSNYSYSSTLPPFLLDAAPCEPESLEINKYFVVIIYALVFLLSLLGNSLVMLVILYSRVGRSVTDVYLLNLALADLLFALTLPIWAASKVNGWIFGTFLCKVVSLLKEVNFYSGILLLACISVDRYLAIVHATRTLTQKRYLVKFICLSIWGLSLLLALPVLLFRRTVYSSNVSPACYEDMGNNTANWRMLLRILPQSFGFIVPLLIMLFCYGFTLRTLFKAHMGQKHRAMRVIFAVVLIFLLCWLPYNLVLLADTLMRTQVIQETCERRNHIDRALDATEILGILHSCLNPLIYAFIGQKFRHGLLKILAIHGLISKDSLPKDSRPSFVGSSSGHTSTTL

Cynomolgus CXCR2 = biological target: T2, Cynomolgus CXCR2 (cynomolgus, UniProt Q28519 3-353 (rhesus entry))
T2 chain: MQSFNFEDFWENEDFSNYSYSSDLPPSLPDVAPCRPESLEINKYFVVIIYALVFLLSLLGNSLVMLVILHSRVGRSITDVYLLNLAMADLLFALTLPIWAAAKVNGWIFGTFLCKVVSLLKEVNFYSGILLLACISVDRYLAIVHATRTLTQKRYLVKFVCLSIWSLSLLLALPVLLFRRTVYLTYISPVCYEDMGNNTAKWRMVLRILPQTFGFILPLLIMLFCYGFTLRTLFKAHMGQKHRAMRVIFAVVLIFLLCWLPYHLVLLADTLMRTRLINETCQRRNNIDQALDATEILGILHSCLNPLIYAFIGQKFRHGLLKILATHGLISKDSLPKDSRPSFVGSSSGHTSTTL

Human CXCR2 [2] = biological target: T1, Human CXCR2; remark: listed apart in the source

B2: CXCR20022 (VHH, not shown: small tags and cut ends)
chain: EVQLVESGGGLVQAGGSLRLSCAASGRTFSDYAMGWFRQAPGKEREFVAAITWNGGRVFYTASVKGRFTISRDNAKNTMYLQMNSLKPEDTAVYYCAADKDRRTDYLGHPVAYWGQGTQVTVSSGGGGSGGGGSGGGGSGGGGSGGGGSGGGGSGGGGSEVQLVESGGGLVQAGGSLRLSCAASGRTFSDYAMGWFRQAPGKEREFVAAITWNGGRVFYTASVKGRFTISRDNAKNTMYLQMNSLKPEDTAVYYCAADKDRRTDYLGHPVAYWGQGTQVTVSS
- FLIPR IC50, GRO-α induced intracellular calcium release (Human CXCR2 [1]): 9.34 nM
- FLIPR IC50, GRO-α induced intracellular calcium release (Cynomolgus CXCR2): 8.64 nM
- [35S]GTPγS % inhibition of max, GRO-α (Human CXCR2 [2]): 100%
- [35S]GTPγS accumulation IC50, GRO-α (Human CXCR2 [2]): 28.5 nM

B4: CXCR20015 (other, not shown: small tags and cut ends)
chain: EVQLVESGGELVQPGGSLRLSCAASGSILTINAMGWYRQAPGKQRELVVRRTRGGSTTYQDSVKGRFTISADIAKKTMYLQMNSLKPEDTAVYYCMLDDRGGVYWGQGTQVTVSSGGGGSGGGGSGGGGSGGGGSGGGGSGGGGSGGGGSEVQLVESGGGLVQPGGSVRLSCVASGIIFRLSALGWTRQGPGKAREWVAGINSDGTTNYADPVKGRFTISRDNAKNTIYLHMDMLKPEDTAVYYCASGKYRGQGTQVTVSS
- FLIPR IC50, GRO-α induced intracellular calcium release (Human CXCR2 [1]): 2.78 nM
- FLIPR IC50, GRO-α induced intracellular calcium release (Cynomolgus CXCR2): 2870 nM

B6: CXCR20024 (VHH, not shown: small tags and cut ends)
chain: EVQLVESGGGLVQPGGSLRLSCVASGRIFSSNAMGWFRQAPGKEREFVAAITWRSGGSAYYADSAKGRFTISRDNAKNTVYLQMNSLKPEDTAVYYCAAGGSSWLSFPPDYWGQGTQVTVSSGGGGSGGGGSGGGGSGGGGSGGGGSGGGGSGGGGSEVQLVESGGGLVQPGGSLRLSCVASGRIFSSNAMGWFRQAPGKEREFVAAITWRSGGSAYYADSAKGRFTISRDNAKNTVYLQMNSLKPEDTAVYYCAAGGSSWLSFPPDYWGQGTQVTVSS
- FLIPR IC50, GRO-α induced intracellular calcium release (Human CXCR2 [1]): 26.4 nM
- FLIPR IC50, GRO-α induced intracellular calcium release (Cynomolgus CXCR2): 11.8 nM
- [35S]GTPγS % inhibition of max, GRO-α (Human CXCR2 [2]): 100%
- [35S]GTPγS accumulation IC50, GRO-α (Human CXCR2 [2]): 30.3 nM

B7: CXCR20017 (other, not shown: small tags and cut ends)
chain: EVQLVESGGGLVQPGGSLRLSCVASGSIVRINTMGWYRQTPGKQRELVADITSGGNINYIDAVKGRFTISRDNTKNTVYLQMNSLKPEDTAVYYCNAEIVVLVGVWTQRARTGNYWGQGTQVTVSSGGGGSGGGGSGGGGSGGGGSGGGGSGGGGSGGGGSEVQLVESGGGLVQPGGSVRLSCVASGIIFRLSALGWTRQGPGKAREWVAGINSDGTTNYADPVKGRFTISRDNAKNTIYLHMDMLKPEDTAVYYCASGKYRGQGTQVTVSS
- FLIPR IC50, GRO-α induced intracellular calcium release (Human CXCR2 [1]): 22.9 nM
- FLIPR IC50, GRO-α induced intracellular calcium release (Cynomolgus CXCR2): 1080 nM

Second part, the binder after the results:

- FLIPR IC50, GRO-α induced intracellular calcium release (Human CXCR2 [1]): 12.2 nM
- FLIPR IC50, GRO-α induced intracellular calcium release (Cynomolgus CXCR2): 7.88 nM
- [35S]GTPγS % inhibition of max, GRO-α (Human CXCR2 [2]): 100%
- [35S]GTPγS accumulation IC50, GRO-α (Human CXCR2 [2]): 0.891 nM
B1: CXCR20025 (bispecific antibody, not shown: small tags and cut ends)
chain: EVQLVESGGGLVQAGGSLRLSCAASGRTFSDYAMGWFRQAPGKEREFVAAITWNGGRVFYTASVKGRFTISRDNAKNTMYLQMNSLKPEDTAVYYCAADKDRRTDYLGHPVAYWGQGTQVTVSSGGGGSGGGGSGGGGSGGGGSGGGGSGGGGSGGGGSEVQLVESGGGLVQAGESLRLSCAASGSTFDFKVMGWYRQPPGKQREGVAAIRLSGNMHYAESVKGRFTISKANAKNTVYLQMNSLRPEDTAVYYCKVNIRGQDYWGQGTQVTVSS

- FLIPR IC50, GRO-α induced intracellular calcium release (Human CXCR2 [1]): 7.86 nM
- FLIPR IC50, GRO-α induced intracellular calcium release (Cynomolgus CXCR2): 4.27 nM
B3: CXCR20036 (other, not shown: small tags and cut ends)
chain: EVQLVESGGGLVQAGGSLTLSCAVSGSTFRINTMGWYRRAPGKQRELVAARDRGGYINYVDSVKGRFTVSRDNAKPTMYLQMNSLKPEDTAVYYCHAGTQDRTGRNFDRWGQGTQVTVSSGGGGSGGGGSGGGGSGGGGSGGGGSGGGGSGGGGSEVQLVESGGGLVQAGGSLRLSCAASGRTFSDYAMGWFRQAPGKEREFVAAITWNGGRVFYTASVKGRFTISRDNAKNTMYLQMNSLKPEDTAVYYCAADKDRRTDYLGHPVAYWGQGTQVTVSS

- FLIPR IC50, GRO-α induced intracellular calcium release (Human CXCR2 [1]): 17.1 nM
- FLIPR IC50, GRO-α induced intracellular calcium release (Cynomolgus CXCR2): 10.1 nM
B5: CXCR20029 (other, not shown: small tags and cut ends)
chain: EVQLVESGGGLVQPGGSLRLSCVASGRIFSSNAMGWFRQAPGKEREFVAAITWRSGGSAYYADSAKGRFTISRDNAKNTVYLQMNSLKPEDTAVYYCAAGGSSWLSFPPDYWGQGTQVTVSSGGGGSGGGGSGGGGSGGGGSGGGGSGGGGSGGGGSEVQLVESGGGLVQAGGSLTLSCAVSGSTFRINTMGWYRRAPGKQRELVAARDRGGYINYVDSVKGRFTVSRDNAKPTMYLQMNSLKPEDTAVYYCHAGTQDRTGRNFDRWGQGTQVTVSS

Reference: patent publication US20170101476A1 (Novartis, published 2017)
